Holding throughout (experiment): NMR titration
Series [1] deals with T1, hnRNP F qRRM3 (Homo sapiens, UniProt P52597 277-381).
T1 sequence: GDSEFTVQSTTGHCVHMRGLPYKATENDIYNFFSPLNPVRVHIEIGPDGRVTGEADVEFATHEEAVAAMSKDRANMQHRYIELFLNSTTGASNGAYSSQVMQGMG

The target in series [2] is T2, hnRNP F qRRM2 (Homo sapiens, UniProt P52597 103-194).
T2 sequence: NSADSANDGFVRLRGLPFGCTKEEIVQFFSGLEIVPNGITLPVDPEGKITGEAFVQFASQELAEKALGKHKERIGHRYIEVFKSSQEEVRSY

The target in series [3] is T3, hnRNP F qRRM1-2 (Homo sapiens, UniProt P52597 1-194).
T3 sequence: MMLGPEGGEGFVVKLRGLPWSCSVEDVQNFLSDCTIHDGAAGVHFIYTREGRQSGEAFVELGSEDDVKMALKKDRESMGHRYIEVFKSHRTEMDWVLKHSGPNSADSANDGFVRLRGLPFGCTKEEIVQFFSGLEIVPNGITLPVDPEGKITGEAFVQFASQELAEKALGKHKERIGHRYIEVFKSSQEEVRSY

The results in this text go back to article PMC1540728.

Turning to CUGGGGU (structured_RNA) [Bcl-x third G-tract RNA], the binding result in series [1] is on record as “no binding”.

Turning to UGCAUG (ssRNA) [Fox RNA-binding site UGCAUG], the binding result in series [2] is on record as “no binding”.

For CGGGAUGGGGUA (structured_RNA) [Bcl-x G-tracts 1-2 RNA], the binding result in series [3] is recorded as “binds”.

On to GGG (ssRNA) [GGG RNA], for which, in series [2], the binding result was “binds”.
